Six substances from US20200024330A1 can be followed below.

Usually IC50 stands for the concentration that gives 50% inhibition. Low values mean greater potency, high ones weaker potency.

Some results are limits rather than exact numbers.

Holding throughout (assay): cell-based or functional assay
Experiment [1] deals with HIV-1 92BR020 envelope protein (Env) on pseudovirus (HIV-1).
In experiment [2] the target is HIV-1 92UG005 envelope protein (Env) on pseudovirus (HIV-1).
The target of experiment [3] is HIV-1 92UG024 envelope protein (Env) on pseudovirus (HIV-1).
Experiment [4] concerns the target HIV-1 94KE105 envelope glycoprotein (Env) (HIV-1).
Experiment [5] has as its target HIV-1 Env of isolate 92UG001 (clade D) (HIV-1).
The target of experiment [6] is HIV-1 Env of isolate MGRM-D-005 (clade D) (HIV-1).
For experiment [7], the target named is HIV-1 Env of isolate MGRM-D-014 (clade D) (HIV-1).
Experiment [8] addresses HIV-1 Env of isolate MGRM-G-024 (clade G pseudovirus) (HIV-1).
Experiment [9] has as its target HIV-1 Env of pseudovirus MGRM-Chronic-B-002, clade B (HIV-1).
Experiment [10] concerns the target HIV-1 Env of pseudovirus NL43, clade B (HIV-1).
For experiment [11], the target named is HIV-1 MGRM-A-006 envelope glycoprotein (Env) (HIV-1).
The target of experiment [12] is HIV-1 MGRM-A-007 envelope glycoprotein (Env) (HIV-1).
The target in experiment [13] is HIV-1 MGRM-A-013 envelope glycoprotein (Env) (HIV-1).
The target of experiment [14] is HIV-1 MGRM-C-008 Env (HIV-1).
The target in experiment [15] is HIV-1 MGRM-F1-012 Env (pseudovirus) (HIV-1).

Sequence of 1443_C16 (PG16) (TCN-116) (antibody) (VH): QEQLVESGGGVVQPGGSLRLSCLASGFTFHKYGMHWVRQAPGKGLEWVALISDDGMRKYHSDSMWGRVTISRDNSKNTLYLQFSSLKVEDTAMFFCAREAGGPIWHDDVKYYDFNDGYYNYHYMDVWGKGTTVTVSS
Sequence of 1443_C16 (PG16) (TCN-116) (antibody) (VL): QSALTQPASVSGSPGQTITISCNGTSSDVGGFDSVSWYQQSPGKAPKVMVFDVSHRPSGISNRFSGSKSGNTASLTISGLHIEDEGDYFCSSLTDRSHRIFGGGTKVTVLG

With 2F5 (antibody), the results for the neutralization IC50 in experiment [1], in [2] and in experiment [3] were > 50 µg/mL, 11.8 µg/mL and 1.27 µg/mL, respectively. The IC50 (µg/ml), pseudovirus neutralization in [4] was > 50 µg/mL; in [5], 13 µg/mL; in [6], > 50 µg/mL; in [7], 2.22 µg/mL; in experiment [8], 1.07 µg/mL; in [9], 1.25 µg/mL. Besides, the IC50 (µg/ml), pseudovirus neutralization is 2.02 µg/mL in experiment [10]; 15.7 µg/mL in [11]; 16.3 µg/mL in experiment [12]; 0.66 µg/mL in experiment [13]; > 50 µg/mL in experiment [15]. In addition, the IC50 in experiment [14] was > 50 µg/mL.

With 2G12 (antibody), the neutralization IC50 in experiment [1] was 2.26 µg/mL; in experiment [2], > 50 µg/mL; in experiment [3], 0.59 µg/mL. Further, the IC50 (µg/ml), pseudovirus neutralization in [4] is 7.22 µg/mL; in experiment [5] it was > 50 µg/mL; in [6] it was 25.7 µg/mL; in experiment [7] it was > 50 µg/mL; in [8], > 50 µg/mL; in [9], > 50 µg/mL. Moreover, the IC50 (µg/ml), pseudovirus neutralization in experiment [10] was 0.49 µg/mL; in [11], 13.8 µg/mL; in experiment [12], > 50 µg/mL; in experiment [13], > 50 µg/mL; in experiment [15], 1.81 µg/mL. The half-inhibitory concentration (IC50) in experiment [14] is > 50 µg/mL.

In the case of 4E10 (antibody), the neutralization IC50 in experiment [1] stood at 41.4 µg/mL; in experiment [2], 8.86 µg/mL; in experiment [3], 1.32 µg/mL. The IC50 (µg/ml), pseudovirus neutralization in experiment [4] turned out to be 7.63 µg/mL; in experiment [5], 13.6 µg/mL; in [6] it was 35.2 µg/mL; in [7], 3.24 µg/mL; in [8], 1.57 µg/mL; in experiment [9], 2.19 µg/mL. The IC50 (µg/ml), pseudovirus neutralization in experiment [10] came out at 4.67 µg/mL; in [11], 9.87 µg/mL; in experiment [12] it was 1.82 µg/mL; in experiment [13] it was 1.46 µg/mL; in [15] it was 0.37 µg/mL. The IC50 in [14] stood at 2.97 µg/mL.

Turning to 1443_C16 (PG16) (TCN-116) (antibody), the neutralization IC50 in [1], in experiment [2] and in [3] was > 50 µg/mL throughout. The IC50 (µg/ml), pseudovirus neutralization in experiment [4] is 6.13 µg/mL; in [5], > 50 µg/mL; in experiment [6], 19.7 µg/mL; in experiment [7], 0.003 µg/mL; in experiment [8], 0.01 µg/mL; in [9] it was 3.06 µg/mL. Moreover, the IC50 (µg/ml), pseudovirus neutralization in [10] is 0.02 µg/mL; in experiment [11], > 50 µg/mL; in [12] it was 5.91 µg/mL; in experiment [13], 0.09 µg/mL; in [15], 0.003 µg/mL. The half-maximal inhibitory concentration (IC50) in experiment [14] was > 50 µg/mL.

With 1495_C14 (PGC14) (antibody), the neutralization IC50 in experiment [1] is 0.637 µg/mL; in [2] it was > 50 µg/mL; in [3], > 50 µg/mL. The IC50 (µg/ml), pseudovirus neutralization in experiment [4] was > 50 µg/mL; in experiment [5], > 50 µg/mL; in experiment [6], > 50 µg/mL; in experiment [7] it was 48 µg/mL; in experiment [8] it was > 50 µg/mL; in experiment [9], > 50 µg/mL. Also, the IC50 (µg/ml), pseudovirus neutralization in experiment [10] was 40 µg/mL; in [11] it was > 50 µg/mL; in experiment [12], > 50 µg/mL; in experiment [13], > 50 µg/mL; in [15], > 50 µg/mL. Also, the IC50 in [14] was > 50 µg/mL.

In the case of b12 (antibody), the values for the neutralization IC50 in experiment [1], in [2] and in experiment [3] were 27.5 µg/mL, > 50 µg/mL and 49.1 µg/mL, respectively. Moreover, the IC50 (µg/ml), pseudovirus neutralization in experiment [4] was > 50 µg/mL; in experiment [5], 1.01 µg/mL; in [6] it was > 50 µg/mL; in experiment [7], > 50 µg/mL; in experiment [8] it was 2.38 µg/mL; in experiment [9] it was 0.86 µg/mL. For the same substance, the IC50 (µg/ml), pseudovirus neutralization in [10] is 0.17 µg/mL; in experiment [11], 13.6 µg/mL; in experiment [12], > 50 µg/mL; in [13], 7.04 µg/mL; in experiment [15] it was > 50 µg/mL. For the same substance, the IC50 in experiment [14] is 1.51 µg/mL.
